Laboratory results as given in publication PMC8136818.

Test system: SmpO45 (Staphylococcus aureus plasmid pWBG745)
Assay: SPR
Details: SPR: 10 mM HEPES, 150-300 mM NaCl, 3 mM EDTA, 0.05% Tween 20, 1 uM protein (pH, temperature not given); EMSA: Li-Cor binding buffer, 0.5 ug/ul herring sperm …

| Sequence | binding signal [% Rmax] |
| --- | --- |
| CCCCATAAAATATGGGGTCATATTTCCCTT / AAGGGAAATATGACCCCATATTTTATGGGGCCTACCCTACGTCCTCCTGC [OT45.10] | 30 |
| GACACTATAGTTTATTGTGGGGTCACTTTA / TAAAGTGACCCCACAATAAACTATAGTGTCCCTACCCTACGTCCTCCTGC [OT45.3] | 30 |
| TTTATTGTGGGGTCACTTTAAATTCTTTAA / TTAAAGAATTTAAAGTGACCCCACAATAAACCTACCCTACGTCCTCCTGC [OT45.4] | 30 |
